For experiment [1], the target named is T1, Human C5 (human, UniProt P01031 19-1676).
T1 construct: The natural protein has a beta and an alpha chain; also called complement factor 5; complement component 5
The experiment in a line: SPR, mAb captured by anti-hFc, 37C. The procedure:
(§1) Equilibrium dissociation constants (KD values) for C5 binding to purified anti-C5 antibodies were determined using a real-time surface plasmon resonance biosensor assay on a Biacore T200 instrument. The Biacore sensor surface was derivatized by amine coupling with a monoclonal mouse anti-human Fc antibody (GE Healthcare, # BR-1008-39) to capture anti-C5 antibodies expressed with human Fc constant regions. Biacore binding studies were conducted in HBST running buffer (0.01M HEPES pH 7.4, 0.15M NaCl, 3 mM EDTA, 0.05% v/v Surfactant P20).
(§2) Human C5 was obtained from a commercial source (EMD). Other C5 reagents were expressed with a C-terminal myc-myc-hexahistidine tag (subsequently referred to as C5-mmh). […] Association of all the C5 reagents to each of the captured monoclonal antibodies was monitored for 3 minutes and their dissociation in HBST running buffer was monitored for 8 minutes. All the binding kinetics experiments were performed at either 25° C. or 37° C. Kinetic association (kₐ) and dissociation (kd) rate constants were determined by fitting the real-time sensorgrams to a 1:1 binding model using Scrubber 2.0c curve fitting software. Binding dissociation equilibrium constants (KD) and dissociative half-lives (t %) were calculated from the kinetic rate constants as: KD (M)=kd/kₐ and t_{1/2} (min)=In2/(60×kd)

A further experiment deals with T2, monkey C5-mmh (monkey, UniProt P01031 19-1676 (human entry), limits assumed).
T2 construct: Expressed with a C-terminal myc-myc-hexahistidine tag
T2 chain: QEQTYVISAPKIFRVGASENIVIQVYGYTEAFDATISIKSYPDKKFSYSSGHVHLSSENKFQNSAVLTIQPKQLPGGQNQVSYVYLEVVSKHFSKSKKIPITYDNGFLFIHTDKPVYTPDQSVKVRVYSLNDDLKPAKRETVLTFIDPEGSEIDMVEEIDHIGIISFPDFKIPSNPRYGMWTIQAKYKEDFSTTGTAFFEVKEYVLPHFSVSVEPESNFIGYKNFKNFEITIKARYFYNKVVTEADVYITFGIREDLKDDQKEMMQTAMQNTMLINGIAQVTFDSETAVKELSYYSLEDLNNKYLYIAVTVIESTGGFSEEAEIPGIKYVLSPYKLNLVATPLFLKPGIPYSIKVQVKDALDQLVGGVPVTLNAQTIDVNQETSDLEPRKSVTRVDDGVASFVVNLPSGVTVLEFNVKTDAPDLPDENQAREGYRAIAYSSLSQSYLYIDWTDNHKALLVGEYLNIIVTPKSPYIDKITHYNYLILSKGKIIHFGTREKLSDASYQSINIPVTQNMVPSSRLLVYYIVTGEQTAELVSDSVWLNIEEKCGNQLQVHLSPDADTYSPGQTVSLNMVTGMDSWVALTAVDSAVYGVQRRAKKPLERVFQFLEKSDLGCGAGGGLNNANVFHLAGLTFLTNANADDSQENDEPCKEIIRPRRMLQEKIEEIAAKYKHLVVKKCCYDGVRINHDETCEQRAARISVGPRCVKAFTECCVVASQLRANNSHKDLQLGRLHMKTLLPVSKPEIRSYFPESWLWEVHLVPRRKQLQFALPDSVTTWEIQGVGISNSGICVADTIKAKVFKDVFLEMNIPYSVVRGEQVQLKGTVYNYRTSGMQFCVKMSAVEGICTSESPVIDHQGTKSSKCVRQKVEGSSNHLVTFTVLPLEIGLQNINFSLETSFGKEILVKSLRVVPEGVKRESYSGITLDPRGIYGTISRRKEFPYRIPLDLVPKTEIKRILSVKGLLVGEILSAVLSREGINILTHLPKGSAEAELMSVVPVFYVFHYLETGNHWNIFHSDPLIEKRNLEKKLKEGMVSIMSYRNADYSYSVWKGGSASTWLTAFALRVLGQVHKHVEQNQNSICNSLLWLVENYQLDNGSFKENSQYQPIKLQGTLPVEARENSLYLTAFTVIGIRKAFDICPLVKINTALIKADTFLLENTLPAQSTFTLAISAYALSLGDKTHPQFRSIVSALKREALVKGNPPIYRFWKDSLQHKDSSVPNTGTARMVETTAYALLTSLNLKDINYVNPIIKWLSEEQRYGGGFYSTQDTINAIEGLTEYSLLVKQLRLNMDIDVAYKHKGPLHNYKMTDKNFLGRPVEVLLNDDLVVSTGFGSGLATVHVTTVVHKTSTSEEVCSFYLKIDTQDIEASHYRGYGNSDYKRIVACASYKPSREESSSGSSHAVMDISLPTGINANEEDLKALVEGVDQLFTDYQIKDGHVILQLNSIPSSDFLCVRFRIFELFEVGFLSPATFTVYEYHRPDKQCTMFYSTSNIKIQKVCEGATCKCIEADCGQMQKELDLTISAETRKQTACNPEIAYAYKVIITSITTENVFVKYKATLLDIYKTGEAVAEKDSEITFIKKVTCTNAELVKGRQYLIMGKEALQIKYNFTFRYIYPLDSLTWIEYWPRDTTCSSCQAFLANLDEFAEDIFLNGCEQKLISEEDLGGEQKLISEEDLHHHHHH
The experiment in a line: SPR, mAb captured by anti-hFc, 25C. On the procedure: as §1, §2
(SPR reads the build-up and loss of mass on a sensor chip optically.)

For experiment [2], the target named is T1, Human C5. The experiment in a line: SPR, mAb captured by anti-hFc, 25C. On the procedure: as §1, §2

B1: H4H12175P (antibody, human IgG4, V domains shown)
VH: EVQLVESGGGVVQPGGSLRLSCAASGFTFNDYAMHWVRQAPGKGLEWVSLISGDGGNTYYADSVKGRLTISRDNSKNSLYLQMNSLRTEDTALYYCAKDKGWNFGYFDLWGRGTLVTVSS
VL: DIQMTQSPSSLSTSVGDRVTITCRASQNIDTYLNWYQQKPGKAPKLLIYDASSLQSGVPSRFSGSGSGTDFTLTITSLQPEDFATYYCQQNDNILHPLTFGGGTKVEIK
In the case of B1, in the experiment with Human C5 [1], the “100 nM Human C5 Bound (RU)” value turned out to be 132 RU; the Kd – broadly, the free concentration of one partner at which half of the binding sites on the other are occupied at equilibrium, for simple one-to-one binding – was determined as 2.15 nM; the koff (as a rule, a measure of how fast the partners let go of each other) was determined as 0.000637 s⁻¹; the kon (usually the second-order rate constant of association) stood at 296000 M⁻¹ s⁻¹. Moreover, the t½ (as a rule, the time needed for the level to fall by half in the phase considered) with Human C5 [1] turned out to be 0.3 h. Moreover, in the experiment with monkey C5-mmh, the “100 nM monkey C5-mmh Bound (RU)” value was found to be 59 RU, the Kd is 25.7 nM, the off-rate (koff) came out at 0.00165 s⁻¹ and the kon was 64200 M⁻¹ s⁻¹. Also, the “t1/2” value in the experiment with monkey C5-mmh amounted to 0.117 h. For the same molecule, in the experiment with Human C5 [2], the “100 nM Human C5 Bound (RU)” value came to 100 RU, the Kd was 0.91 nM, the koff was 0.000196 s⁻¹ and the kon turned out to be 216000 M⁻¹ s⁻¹. For the same molecule, in the experiment with Human C5 [2], the t½ stood at 0.983 h.

B2: H4H12159P (antibody, human IgG4, V domains shown)
VH: QVQLVESGGGVVQPGRSLRLSCGASGFTFSTYGMHWVRQAPGKGLEWVAVIWDDGNNKYYADSVKGRFTISRDNSKNTLYLQMNSLRAEDTAVYYCARDSEVAPVGDYWGQGTLVTVSS
VL: DIQMTQSPSTLSASVGDRVTIICRASQSINRWLAWYQQKPGKAPKLLIYKASSLESGVPSRFSGSGSGTEFTLTISSLQPDDFAAYYCQQYNDYSYTFGQGTKLEIK
On to B2, for which, in the experiment with Human C5 [1], the “100 nM Human C5 Bound (RU)” value worked out at 145 RU; the affinity, expressed as Kd, was 0.103 nM; the koff came to 0.000107 s⁻¹; the kon was 1.04e+06 M⁻¹ s⁻¹. For the same molecule, in the experiment with Human C5 [1], the t½ was found to be 1.8 h. In addition, in the experiment with monkey C5-mmh, the “100 nM monkey C5-mmh Bound (RU)” value amounted to 116 RU, the Kd is 0.133 nM, the koff amounted to 4.69e-05 s⁻¹ and the kon is 354000 M⁻¹ s⁻¹. Also, the “t1/2” value in the experiment with monkey C5-mmh was found to be 4.1 h. Further, in the experiment with Human C5 [2], the “100 nM Human C5 Bound (RU)” value came to 118 RU, binding was put at a Kd of 0.0731 nM, the koff was determined as 7.13e-05 s⁻¹ and the kon came to 975000 M⁻¹ s⁻¹. Besides, the t½ in the experiment with Human C5 [2] stood at 2.7 h.

B3: H4H12167P (antibody, human IgG4, V domains shown)
VH: QVQLVESGGGLVKPGGSLRLSCAASGFTFSDSYMSWIRQAPGKGLEWISYIGSSGNTFYYADSVKGRFTISRDNANNLLYLQMTSLRAEDTAVYYCAREEGDFWSAVDSWGQGTLVTVSS
VL: DIQLTQSPSFLSASVGDRVTITCWASQGISSYLAWYQQKPGKAPKLLIHTASTLQSGVPSRFSGSGSGTEFTLTISNLQPEDFATYYCQQLNSYPFTFGPGTKVDIK
On to B3, for which, in the experiment with Human C5 [1], the “100 nM Human C5 Bound (RU)” value stood at 153 RU, the Kd was found to be 0.295 nM, the koff came out at 0.000381 s⁻¹ and the kon came to 1.29e+06 M⁻¹ s⁻¹. The molecule also gave a t½ with Human C5 [1] of 0.5 h. Also, in the experiment with monkey C5-mmh, the “100 nM monkey C5-mmh Bound (RU)” value is 111 RU, binding was characterised by a dissociation constant (Kd) of 0.315 nM, the koff amounted to 0.000132 s⁻¹ and the kon was 419000 M⁻¹ s⁻¹. Further, the “t1/2” value with monkey C5-mmh was found to be 1.47 h. Besides, in the experiment with Human C5 [2], the “100 nM Human C5 Bound (RU)” value came out at 116 RU, binding was characterised by a dissociation constant (Kd) of 0.121 nM, the koff came to 0.000131 s⁻¹ and the kon was 1.09e+06 M⁻¹ s⁻¹. Further, the t½ in the experiment with Human C5 [2] came to 1.47 h.

B4: H4H12163P (antibody, human IgG4, V domains shown)
VH: EVQLVESGGDLVQPGGSLRLSCAASGFTFSSYAMNWVRQGPGKGLEWVSAISGRGDSTYYADSVKGRLTISRDNSKNTLYLQMNSLRAEDTAVYYCVKEGEQLVYWYFDLWGRGTLVTVSS
VL: DIQMTQSPSSLSASVGDRVTITCRASQTISNFLHWYQQKPGKAPKLLIYAASSLQSGVPSRFSGSGSGTDFTLTISSLQPEDFSTYFCQQSYTTPLTFGGGTKVEIK
Consider B4, for which, in the experiment with Human C5 [1], the “100 nM Human C5 Bound (RU)” value turned out to be 139 RU, the Kd came out at 0.729 nM, the koff was found to be 0.000665 s⁻¹ and the kon is 911000 M⁻¹ s⁻¹. Moreover, the t½ in the experiment with Human C5 [1] stood at 0.283 h. Moreover, in the experiment with monkey C5-mmh, the “100 nM monkey C5-mmh Bound (RU)” value turned out to be 98 RU, the Kd was found to be 2.49 nM, the koff was 0.000775 s⁻¹ and the on-rate constant (kon) was 311000 M⁻¹ s⁻¹. Also, the “t1/2” value with monkey C5-mmh is 0.25 h. Also, in the experiment with Human C5 [2], the “100 nM Human C5 Bound (RU)” value was found to be 108 RU, the Kd amounted to 0.324 nM, the koff is 0.000208 s⁻¹ and the kon amounted to 643000 M⁻¹ s⁻¹. In the experiment with Human C5 [2], the t½ was found to be 0.917 h.

B5: H4H12176P2 (antibody, human IgG4, V domains shown)
VH: EVQLVESGGGLVQPGGSLRLSCAASGFHSNRYWMDWVRQAPGKGLEWVANIKQDGSEENYVDSVKGRFTISRDNAKNSLYLQMNSLRAEDTAVYYCARDRSTSWVPYWFFDLWGRGTLVTVSS
VL: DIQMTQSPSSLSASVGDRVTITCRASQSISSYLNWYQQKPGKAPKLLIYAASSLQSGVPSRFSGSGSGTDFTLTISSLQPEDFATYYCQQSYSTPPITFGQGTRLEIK
For the molecule B5, in the experiment with Human C5 [1], the “100 nM Human C5 Bound (RU)” value was 71 RU, the Kd is 1.59 nM, the koff came out at 0.000234 s⁻¹ and the kon came to 147000 M⁻¹ s⁻¹. In the experiment with Human C5 [1], the t½ stood at 0.817 h. Also, in the experiment with monkey C5-mmh, the “100 nM monkey C5-mmh Bound (RU)” value was determined as 69 RU, the Kd came out at 0.322 nM, the koff turned out to be 5.88e-05 s⁻¹ and the kon stood at 182000 M⁻¹ s⁻¹. Further, the “t1/2” value with monkey C5-mmh was 3.27 h. For the same molecule, in the experiment with Human C5 [2], the “100 nM Human C5 Bound (RU)” value came to 96 RU, the Kd is 0.201 nM, the koff turned out to be 6.75e-05 s⁻¹ and the kon was determined as 336000 M⁻¹ s⁻¹. For the same molecule, the t½ with Human C5 [2] is 2.85 h.

B6: H4H12164P (antibody, human IgG4, V domains shown)
VH: EVQLVESGGGLVRSGGSLRLSCAASGFTFNRYAMTWVRQAPGKGLEWVSAISGSGSSTYYTDSVKGRFTISRDNSKNSVDLQMHSLRVEDTAIYYCARGTTVTTGYGMDVWGQGTTVTVSS
VL: DIQMTQSPSSLSASVGDRVTFTCQASQDITNSLNWYQQKPGRAPKLLIYDASYLKAGVPSRFSGSGSGTDFTFTISSLQPEDIATYYCQQYDDLPYTFGQGTKLEIK
For the molecule B6, in the experiment with Human C5 [1], the “100 nM Human C5 Bound (RU)” value came to 140 RU, binding was characterised by a dissociation constant (Kd) of 0.323 nM, the koff was determined as 0.000128 s⁻¹ and the kon came to 396000 M⁻¹ s⁻¹. In the experiment with Human C5 [1], this molecule gave a t½ of 1.5 h. Besides, in the experiment with monkey C5-mmh, the “100 nM monkey C5-mmh Bound (RU)” value was 66 RU, the Kd was 12 nM, the koff was 0.00153 s⁻¹ and the kon is 127000 M⁻¹ s⁻¹. Also, the “t1/2” value with monkey C5-mmh amounted to 0.133 h. In addition, in the experiment with Human C5 [2], the “100 nM Human C5 Bound (RU)” value worked out at 103 RU, the Kd is 0.302 nM, the koff came to 8.84e-05 s⁻¹ and the kon is 292000 M⁻¹ s⁻¹. Besides, in the experiment with Human C5 [2], the t½ is 2.18 h.

For the origin of these results see patent US20170355757A1 (Regeneron, published 2017).
